The results in this text go back to PMC4829482.

Series [1] has as its system CC(C)=CCC/C(C)=C/CC/C(C)=C/CO[P@@](=O)(O)OP(=O)(O)O. Description: steady-state radiochemical kinetics. The format is biochemical, Streptomyces citricolor. To be noted: Mg2+ active site.
Substrate in the series “purified protein”: CC(C)=CCC/C(C)=C/CC/C(C)=C/CO[P@@](=O)(O)OP(=O)(O)O
The series can be described thus: purified protein. To be noted: Mg2+ active site.

Take “germacradien-4-ol synthase (GdolS) (Streptomyces citricolor; D81E)”: in series [1], the Michaelis-Menten constant (Km) is 0.82 ± 0.11 µM and the kcat is 0.01 ± 0.0006 s⁻¹.
Taken in the same sequence, the figures for “germacradien-4-ol synthase (GdolS) (Streptomyces citricolor; D84E)” were 0.92 ± 0.09 µM and 0.009 ± 0.0003 s⁻¹.
As to “germacradien-4-ol synthase (GdolS) (Streptomyces citricolor; E307Q)”, in series [1], the Michaelis constant (Km) was found to be 2.24 ± 0.16 µM and the kcat turned out to be 0.013 ± 0.0004 s⁻¹.
Taken in the same sequence, the figures for “germacradien-4-ol synthase (GdolS) (Streptomyces citricolor; Y303F)” were 0.66 ± 0.12 µM and 0.014 ± 0.006 s⁻¹.

B1: germacradien-4-ol synthase (GdolS) (Streptomyces citricolor) (protein)
chain: MSDDTSLELPFTHRRNPHQTEAADRHLEWLQRHRELAAVVSGSTYTGWDITELASLVYPESSAEDLALAADLMGFYFLFDDQFDSPLGRRPEQVALICERLSAIAHGTLTAVTSPSERAFADLWRRITLGMTDRWRARAACNWEYYFACHPAEAAGRTIGQPPDREGYLTLRRGTAAMESIFDMIERLGHFEVPQHVMHHPLFRQLRQLAADIPSFTNDVRSFAQESERGDVANLVMIVRRDRCCSTEEACAVVWDEAQRMADRFCDLRDQLPDACRSMSLDPAQRLAAERYADGMALWLAGYLHWESHTRRYHHG
In the case of B1, in “purified protein”, the Km was found to be 1.07 ± 0.13 µM, the kcat was found to be 0.079 s⁻¹ and the kcat/Km turned out to be 73800 M⁻¹ s⁻¹.
